Like-named read-outs stand apart in the source and are kept apart here.

Test [1] addresses T1, UreE (Helicobacter pylori, UniProt Q09064).
T1 chain: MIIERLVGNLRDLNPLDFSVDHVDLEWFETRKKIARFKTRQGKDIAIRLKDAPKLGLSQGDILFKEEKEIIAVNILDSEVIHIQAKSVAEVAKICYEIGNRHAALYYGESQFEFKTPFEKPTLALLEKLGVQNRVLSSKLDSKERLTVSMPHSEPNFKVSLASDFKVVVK
The experiment in a line: ITC. In general terms: In ITC the heat of successive injections is recorded.

In test [2] the target is T1, UreE. Description: fluorescence titration.
Test [3] addresses T2, Helicobacter pylori UreE homodimer (UreE2) (Helicobacter pylori, UniProt Q09064 1-170).
T2 sequence: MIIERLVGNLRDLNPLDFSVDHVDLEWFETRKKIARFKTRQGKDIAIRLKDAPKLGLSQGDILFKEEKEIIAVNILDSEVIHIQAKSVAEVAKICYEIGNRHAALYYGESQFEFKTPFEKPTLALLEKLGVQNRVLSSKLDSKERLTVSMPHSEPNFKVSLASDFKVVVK
The experiment in a line: SEC-MALS. For orientation: SEC sorts molecules by how far they enter the pores of the column.

In test [4] the target is T2, Helicobacter pylori UreE homodimer …. The experiment in a line: ITC.
Test [5] has the same target. Description: ITC. The source holds these as a separate data set.

B1: HypA (protein)
chain: MHEYSVVSSLIALCEEHAKKNQAHKIERVVVGIGERSAMDKSLFVSAFETFREESLVCKDAILDIVDEKVELECKDCSHVFKPNALDYGVCEKCHSKNVIITQGNEMRLLSLEMLAE
modifications: Ni,Zn-HypA
One may read the Kd as the free concentration of one partner at which half of the binding sites on the other are occupied at equilibrium, for simple one-to-one binding. The molecule B1 showed a Kd in test [1] of roughly 0.0006 µM.

B2: HypA (protein)
chain: MHEYSVVSSLIALCEEHAKKNQAHKIERVVVGIGERSAMDKSLFVSAFETFREESLVCKDAILDIVDEKVELECKDCSHVFKPNALDYGVCEKCHSKNVIITQGNEMRLLSLEMLAE
modifications: apo,Zn-HypA, NHS640-labelled UreE2
In turn, B2 returned a dissociation constant (Kd) in test [2] of roughly 2 µM.

B3: Helicobacter pylori HypA (wild type; apo,Zn-HypA or Ni,Zn-HypA) (natural protein, UniProt P0A0U4 1-117, looked up)
chain: MHEYSVVSSLIALCEEHAKKNQAHKIERVVVGIGERSAMDKSLFVSAFETFREESLVCKDAILDIVDEKVELECKDCSHVFKPNALDYGVCEKCHSKNVIITQGNEMRLLSLEMLAE
The term stoichiometry N denotes a count of units in the complex or per binding partner. On to B3, for which the “stoichiometry N” value in test [3] is 1 HypA per UreE2; in test [4], 1.4 Sites; in test [5], 1.4 Sites. Further, the figures for the Kd in test [4] and in test [5] were 1.2 µM and 0.9 µM, respectively.

The record behind these values is PMC6260798 (Biochemistry, 2018).
